Reference: patent US20130251714A1 (Sanofi, published 2013)
Where a chain is given by its changes, count along the chain named. Names and notes keep the numbering of the source.

B1: Mouse anti-hCXCR5 mAb clone 16D7 (antibody, V domains shown)
VH: QVQLKESGPGLVAPSQSLSITCTVSGFSLIDYGVNWIRQPPGKGLEWLGVIWGDGTTYYNSALKSRLSIRKDNSQSQVFLKMNSLQTDDTAMYYCARIVYWGQGTLVTVSA
VL: DIVMTQAAPSVAVTPRESVSISCRSSKSLLHSSGKTYLYWFLQRPGQSPQLLIYRMSNLASGVPDRFSGSGSGTAFTLRISRVEAEDVGVYYCMQHLEYPYTFGGGTKLEIK
notes: Mouse monoclonal antibody from a hybridoma; kappa light chain; also called murine 16D7; parent 16D7 antibody
B2: 16D7-HC1-LC1 (antibody, V domains shown)
VH: B1 VH with Q16E, S61P, A62S, R70S, Q75K, M82V, N83T, Q86T
VL: DIVMTQAAPSVAVTPGASVSISCRSSKSLLHSSGKTYLYWFLQRPGQSPQLLIYRMSNLASGVPDRFSGSGSGTAFTLRISRVEAEDVGVYYCMQHLEYPYTFGGGTKLEIKR
notes: Humanized 16D7 on an IgG4 backbone / kappa; also called Version1
B3: 16D7-HC1-LC2 (antibody, V domains shown)
VH: B1 VH with Q16E, S61P, A62S, R70S, Q75K, M82V, N83T, Q86T
VL: B2 VL with M56L
notes: Humanized 16D7 on an IgG4 backbone / kappa; also called Version3
B4: 16D7-HC1-LC3 (antibody)
heavy: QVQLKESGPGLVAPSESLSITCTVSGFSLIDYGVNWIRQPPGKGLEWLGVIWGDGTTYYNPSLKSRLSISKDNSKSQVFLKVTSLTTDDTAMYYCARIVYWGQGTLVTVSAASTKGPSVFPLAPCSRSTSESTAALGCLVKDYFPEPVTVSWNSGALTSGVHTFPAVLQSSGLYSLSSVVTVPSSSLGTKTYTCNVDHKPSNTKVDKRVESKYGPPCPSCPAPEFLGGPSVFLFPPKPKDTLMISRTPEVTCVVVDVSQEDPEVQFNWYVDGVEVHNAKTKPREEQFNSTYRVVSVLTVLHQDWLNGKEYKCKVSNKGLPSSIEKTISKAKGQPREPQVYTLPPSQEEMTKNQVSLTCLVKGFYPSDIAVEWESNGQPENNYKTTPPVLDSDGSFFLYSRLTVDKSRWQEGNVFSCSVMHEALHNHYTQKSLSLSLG
light: DIVMTQAAPSVAVTPGASVSISCRSSKSLLHSSGKTYLYWFLQRPGQSPQLLIYRLSSLASGVPDRFSGSGSGTAFTLRISRVEAEDVGVYYCMQHLEYPYTFGGGTKLEIKRTVAAPSVFIFPPSDEQLKSGTASVVCLLNNFYPREAKVQWKVDNALQSGNSQESVTEQDSKDSTYSLSSTLTLSKADYEKHKVYACEVTHQGLSSPVTKSFNRGEC
notes: Humanized 16D7 on an IgG4 backbone / kappa; also called Version 4
B5: 16D7-HC3-LC5 (antibody, V domains shown)
VH: B1 VH with K5Q, Q16E, S61P, A62S, R70S, Q75K, Q86T, T87A, D88A, A111S
VL: B2 VL with A7S, P9L, A17E, M56L, R79K
notes: Resurfaced 16D7; VL fused to IGKC, VH fused to IGHG4 lacking the C-terminal Lys; also called Version6
B6: 16D7-HC2-LC1 (antibody, V domains shown)
VH: EVQLKESGPGLVAPGGSLSITCTVSGFSLIDYGVNWIRQPPGKGLEWLGVIWGDGTTYYNAPLKGRLSISKDNSKSQVFLQMNSLKTDDTAMYYCARIVYWGQGTLVTVSS
VL: B2 VL
notes: Humanized 16D7 on an IgG4 backbone / kappa; also called Version 2
B7: mouse/human IgG4 chimeric 16D7 (antibody, V domains shown)
VH: B1 VH
VL: B2 VL with G16R, A17E
notes: 16D7 VH and VL on human IgG4 (IGHG4 lacking the C-terminal Lys) and kappa (IGKC); also called the hIgG4 chimera
B8: 16D7-HC3-LC4 (antibody, V domains shown)
VH: B1 VH with K5Q, Q16E, S61P, A62S, R70S, Q75K, Q86T, T87A, D88A, A111S
VL: B2 VL with A7S, P9L, A17E, R79K
notes: Resurfaced 16D7; VL fused to IGKC, VH fused to IGHG4 lacking the C-terminal Lys; also called Version5
B9: 16D7-HC1-LC6 (antibody, V domains shown)
VH: B1 VH with Q16E, S61P, A62S, R70S, Q75K, M82V, N83T, Q86T
VL: B2 VL with A7S, P9L, A17E, M56L, N58S, R79K
notes: Leader (residues 1-19) left out by comparison with the printed variable domains
B10: Humanized SAR113244 (16D7-HC1-LC3 carrying the S241P and L248E substitutions) (antibody)
heavy: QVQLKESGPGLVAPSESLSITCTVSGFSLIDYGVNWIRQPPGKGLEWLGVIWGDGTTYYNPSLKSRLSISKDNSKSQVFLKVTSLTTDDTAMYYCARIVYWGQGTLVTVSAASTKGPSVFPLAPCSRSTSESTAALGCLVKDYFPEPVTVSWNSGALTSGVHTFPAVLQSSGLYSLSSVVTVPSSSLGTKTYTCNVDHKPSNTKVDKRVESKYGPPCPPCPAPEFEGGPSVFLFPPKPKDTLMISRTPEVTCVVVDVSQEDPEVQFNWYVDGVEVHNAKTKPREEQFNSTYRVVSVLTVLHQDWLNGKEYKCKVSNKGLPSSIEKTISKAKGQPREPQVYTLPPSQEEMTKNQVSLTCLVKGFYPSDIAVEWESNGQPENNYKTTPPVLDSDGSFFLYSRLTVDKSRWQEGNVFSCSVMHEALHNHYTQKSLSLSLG
light: B4 light
notes: Leader (residues 1-19) left out as for 16D7-HC1-LC3

molecular target: T1, N-terminal EC region of human CXCR5 (amino acids 1-59), synthetic peptide with a terminal biotin tag (human, UniProt P32302 1-59, terminal biotin tag); test: Biacore, forward format: biotin-tagged CXCR5 N-terminal peptide (aa 1-59) on the chip, antibody as analyte
T1 construct: range 1-59; also called biotinylated human peptide
T1 sequence (peptide, looked up): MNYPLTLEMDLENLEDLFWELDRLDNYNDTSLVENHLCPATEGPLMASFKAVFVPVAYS
Description: The N-terminal EC region of CXCR5 (amino acids 1-59) from human and mouse were synthesized with a terminal biotin tag, and used in a forward format Biacore assay where the peptides were immobilized on a Biacore chip and then the kinetics of antibody interaction with the peptides on the chip were determined. The synthetic peptides were immobilized on a Biacore chip for approximately 20 response units (RUs'). Then the mAb's were exposed to the chip for kinetic measurements, following the manufacturer's recommendations (GE Healthcare, Piscataway, N.J.).

Row | Binder | Kd [pM]
1 | B1 | 2.16
2 | B2 | 3.11
3 | B3 | 1.41
4 | B4 | 1.21
5 | B5 | 184
6 | B6 | 2.4
7 | B7 | 1.41
8 | B8 | 4.92
9 | B9 | 91.7

molecular target: T2, un-tagged human CXCR5 N-terminal peptide (amino acids 1-59) (human, UniProt P32302 1-59); test: Biacore, reverse format: mAb captured by pre-immobilized mouse anti-human IgG Fc antibody, un-tagged peptide as analyte
T2 construct: range 1-59
T2 sequence (peptide, looked up): T1 sequence (peptide, looked up)
Description: Humanized SAR113244, a form of the 16D7 humanized variant, 16D7-HC1-LC3 that carries the S241P and L248E substitutions (substitutions introduced practicing known methods and reagents, using Kabat numbering), was captured on a Biacore chip by pre-immobilized mouse anti-human IgG Fc antibody, and then used in a reverse assay format Biacore assay where the kinetics of the un-tagged human CXCR5 N-terminal peptide (amino acids 1-59) interaction with the mAb's on the chip were determined.

Row | Binder | Kd [pM]
10 | B10 | 11.3

molecular target: T3, cynomolgus CXCR5 (on cynomolgus B cells) (cynomolgus monkey, UniProt G8F5K4 1-372); test: FACS on cynomolgus PBMCs (CD20+ B cells)
T3 construct: also called cyno CXCR5
T3 sequence: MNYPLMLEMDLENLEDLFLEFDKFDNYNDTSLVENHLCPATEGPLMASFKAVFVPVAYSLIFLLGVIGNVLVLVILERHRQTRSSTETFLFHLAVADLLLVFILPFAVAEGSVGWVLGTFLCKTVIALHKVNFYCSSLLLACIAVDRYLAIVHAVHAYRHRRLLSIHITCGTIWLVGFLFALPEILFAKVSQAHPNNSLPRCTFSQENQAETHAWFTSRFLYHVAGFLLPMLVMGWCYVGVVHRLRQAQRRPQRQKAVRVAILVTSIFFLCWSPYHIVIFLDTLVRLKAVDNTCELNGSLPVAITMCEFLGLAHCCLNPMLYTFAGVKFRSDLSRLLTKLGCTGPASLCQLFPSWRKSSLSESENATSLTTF
Description: Cynomolgus (cyno) monkey whole blood was obtained from Bioreclamation, Inc. (Hicksville, N.Y.). The blood was shipped in BD Cell Preparation Tubes (CPT) post-centrifugation. The cyno PBMCs contained in the plasma layer were removed from the CPT tube into a 50 ml tube leaving the gradient gel layer undisturbed. The tube was washed with 5 ml PBS to completely extract all the cells and the wash was added to a fresh 50 ml tube. The cyno PBMCs were centrifuged at 1200 RPM for 10 minutes at 4° C. The pellet was resuspended in 1 ml BD FACS Stain buffer (BD). One million cells were used per assay. One μg of mouse anti-human CXCR5 monoclonal antibody (purified) was added to 50 μl PBMC and allowed to bind for 20 minutes at 4° C. Cells were washed 2 times with BD Stain buffer. Fifty μl of second antibody, goat anti-mouse IgG-PE F_{(ab′)} (Beckman Coulter) diluted 1/100, was added to the cells and allowed to bind for 20 minutes at 4° C. Cells were washed three times with BD Stain buffer. A cocktail containing mouse anti-human CD20-FITC (BD) and CD4-APC (BD) at 1/20 dilution each was added to cells for a 20 minute incubation at 4° C. for assessment of B/T cell specificity. Cells were washed 3 times with BD Stain buffer, and resuspended in 250 μl BD Stain buffer and subjected to FACS analysis on a FACStarPlus. Commercial mouse anti-human CXCR5 mAb (R&D; MAB 190) was used as a positive control.

Row | Binder | binding result
11 | B1 | no binding (tested: One µg of antibody added to 50 µl PBMC)
12 | B2 | no binding
13 | B3 | no binding
14 | B4 | no binding
15 | B6 | no binding
